# B1: Molecule R (bispecific antibody, human IgG1, kappa, L234A L235A)
# heavy 1: not shown
# heavy 2: AQLVESGGGLVQPGGSLRLSCAASAYFSFKAMSWVRQAPGKGLEWVGSISPSGGSTYYNDNVLGRFTISRDNSKNTLYLQMNSLRAEDTAVYYCAKDVGFFDEWGQGTLVTVSSASTKGPSVFPLAPSSKSTSGGTAALGCLVEDYFPEPVTVSWNSGALTSGVHTFPAVLQSSGLYSLSSVVTVPSSSLGTQTYICNVNHKPSNTKVDEKVEPKSCDKTHTCPPCPAPEAAGGPSVFLFPPKPKDTLMISRTPEVTCVVVDVSHEDPEVKFNWYVDGVEVHNAKTKPREEQYNSTYRVVSVLTVLHQDWLNGKEYKCKVSNKALGAPIEKTISKAKGQPREPQVCTLPPSRDELTKNQVSLSCAVKGFYPSDIAVEWESNGQPENNYKTTPPVLDSDGSFFLVSKLTVDKSRWQQGNVFSCSVMHEALHNHYTQKSLSLSP
# light 1: DIQMTQSPSSLSASVGDRVTITCRASQSISSYLAWYQQKPGKAPKLLIYDASIRDIGVPSRFSGSGSGTDFTLTISSLQPEDFATYYCQQYSSYPYTFGQGTKLEIKRTVAAPSVFIFPPSDRKLKSGTASVVCLLNNFYPREAKVQWKVDNALQSGNSQESVTEQDSKDSTYSLSSTLTLSKADYEKHKVYACEVTHQGLSSPVTKSFNRGEC
# light 2: EVQLVESGGGLVQPGGSLRLSCAASGYSFTGYTMNWVRQAPGKGLEWVALINPYKGVSTYNQKFKDRFTISVDKSKNTAYLQMNSLRAEDTAVYYCARSGYYGDSDWYFDVWGQGTLVTVSSASVAAPSVFIFPPSDEQLKSGTASVVCLLNNFYPREAKVQWKVDNALQSGNSQESVTEQDSKDSTYSLSSTLTLSKADYEKHKVYACEVTHQGLSSPVTKSFNRGEC
# B2: Molecule B (bispecific antibody, V domains shown)
# VH 1: YPQLVESGGGLVKPGGSLRLSCAARYPFTRLDMSWVRQAPGKGLEWVGSISPKGGSTYYNDNVLGRFTISRDNSKNTLYLQMNSLRAEDTAVYYCARDWGFFDNWGQGTLVTVSS
# VL 1: AIQMTQSPSSLSASVGDRVTITCRASQSISNYLAWYQQKPGKAPKLLIYNASHPEYDVPSRFSGSGSGTDFTLTISSLQPEDFATYYCQQYSSHPYTFGQGTKLEIK
# VH 2: not shown
# VL 2: QAVVTQEPSLTVSPGGTVTLTCGSSTGAVTTSNYANWVQEKPGQAFRGLIGGTNKRAPGTPARFSGSLLGGKAALTLSGAQPEDEAEYYCALWYSNLWVFGGGTKLTVL
# Experiments:
# [1] = molecular target: T1, HLA-A2/MAGE-A4p230-239 complex (human); assay: SPR Biacore T200, antibody captured by anti-human Fc, pMHC complex as analyte, 25 C, 1:1 Langmuir fit
# T1 construct: also called HLA-A2/MAGEp230-239
# Procedure: The dissociation phase was monitored for 240 s and triggered by switching from the sample solution to HBS-EP+. The chip surface was regenerated after every cycle using an injection of 3M MgCl₂ at 10 μl/min for 30 sec. Bulk refractive index differences were corrected for by subtracting the response obtained on the reference flow cell which contains the anti-human Fc antibody, but without HLA-A2/MAGE-A4 antibody captured on it. The affinity constants were derived from the kinetic rate constants by fitting to a 1:1 Langmuir binding using the BIAeval software (GE Healthcare). The measurement was performed in triplicate with independent dilution series.
# [2] = molecular target: T2, HLA-A2/MAGE-A4 peptide MHC (pMHC) complex on cells (human); assay: cell-based or functional assay
# [3] = molecular target: T2, HLA-A2/MAGE-A4 peptide MHC (pMHC) …; assay: cell-based or functional assay; remark: listed apart in the source
# [4] = molecular target: T2, HLA-A2/MAGE-A4 peptide MHC (pMHC) …; assay: cell-based or functional assay; remark: listed apart in the source
# [5] = molecular target: T2, HLA-A2/MAGE-A4 peptide MHC (pMHC) …; assay: cell-based or functional assay; remark: listed apart in the source
# [6] = molecular target: G5A (human); assay: cell-based or functional assay
# [7] = molecular target: T2, HLA-A2/MAGE-A4 peptide MHC (pMHC) …; assay: cell-based or functional assay; remark: listed apart in the source
# [8] = molecular target: H8A (human); assay: cell-based or functional assay
# [9] = molecular target: R6A (human); assay: cell-based or functional assay
# [10] = molecular target: E7A (human); assay: cell-based or functional assay
# [11] = molecular target: V2A (human); assay: cell-based or functional assay
# [12] = molecular target: D4A (human); assay: cell-based or functional assay
# [13] = molecular target: V10A (human); assay: cell-based or functional assay
# [14] = molecular target: G1A (human); assay: cell-based or functional assay
# [15] = molecular target: Y3A (human); assay: cell-based or functional assay
# [16] = molecular target: T9A (human); assay: cell-based or functional assay
# [17] = molecular target: DYNC1H1 (human); assay: cell-based or functional assay
# [18] = molecular target: UNC80 (human); assay: cell-based or functional assay
# [19] = molecular target: MTOR (human); assay: cell-based or functional assay
# [20] = molecular target: CRMP1 (human); assay: cell-based or functional assay
# [21] = molecular target: FBXO34 (human); assay: cell-based or functional assay
# [22] = molecular target: MAGEB2 (human); assay: cell-based or functional assay
# [23] = molecular target: VPS13D (human); assay: cell-based or functional assay
# [24] = molecular target: CCS (human); assay: cell-based or functional assay
# [25] = molecular target: DPYSL4 (human); assay: cell-based or functional assay
# [26] = molecular target: DPYSL3 (human); assay: cell-based or functional assay
# [27] = molecular target: HLA-A2 with peptide MAGA10 on T2 cells (human); assay: cell-based or functional assay
# [28] = molecular target: BNRF1 (human); assay: cell-based or functional assay
# [29] = molecular target: PIGG (human); assay: cell-based or functional assay
# [30] = molecular target: EDC3 (human); assay: cell-based or functional assay
# [31] = molecular target: GAPDHS (human); assay: cell-based or functional assay
# [32] = molecular target: pfkA (human); assay: cell-based or functional assay
# [33] = molecular target: HLA-A2 with peptide MAGB6 on T2 cells (human); assay: cell-based or functional assay
# [34] = molecular target: PKP1 (human); assay: cell-based or functional assay
# [35] = molecular target: UBE2V2 (human); assay: cell-based or functional assay
# [36] = molecular target: ARF3 (human); assay: cell-based or functional assay
# [37] = molecular target: ARF1 (human); assay: cell-based or functional assay
# [38] = molecular target: KEAP1 (human); assay: cell-based or functional assay
# [39] = molecular target: URB1 (human); assay: cell-based or functional assay
# [40] = molecular target: SLC45A1 (human); assay: cell-based or functional assay
# [41] = molecular target: gutQ (human); assay: cell-based or functional assay
# [42] = molecular target: KDM1A (human); assay: cell-based or functional assay
# [43] = molecular target: T2, HLA-A2/MAGE-A4 peptide MHC (pMHC) …; assay: cell-based or functional assay; remark: listed apart in the source
binder,measurement,setting,value
B1,Kd,[1],13.1 nM
same,koff,[1],0.0436 s⁻¹
same,kon,[1],3.33e+06 M⁻¹ s⁻¹
same,"EC50 [pM], T-cell mediated lysis of A375 HLA-A2 overexpressing cells, 24 h",[2],0.08 pM
same,"EC50 [pM], T-cell mediated lysis of A375 cells, 24 h",[2],0.6 pM
same,"EC50 (nM), T-cell mediated lysis of A375 cells, 48 h",[3],1.47 nM
same,"EC50 (nM), T-cell mediated lysis of NCI-H2023 cells, 48 h",[3],1.06 nM
same,"EC50 (nM), T-cell mediated lysis of UMUC-3 cells, 48 h",[3],0.57 nM
B2,"EC50 [pM], T-cell mediated lysis of IM-9 cells, 24 h",[4],1080 pM
same,"EC50 [pM], T-cell mediated lysis of NCI-H1755 cells, 24 h",[4],168 pM
same,"EC50 [pM], activation of Jurkat-NFAT reporter cells (luminescence, 6 h) with MAGE-A4 peptide pulsed T2 cells",[5],~8310 pM
same,"EC50, Jurkat-NFAT activation",[6],0.181 nM
same,"EC50, Jurkat-NFAT activation",[7],0.189 nM
same,"EC50, Jurkat-NFAT activation",[8],0.717 nM
same,"EC50, Jurkat-NFAT activation",[9],45.5 nM
same,"EC50, Jurkat-NFAT activation",[10],3.48 nM
same,"EC50, Jurkat-NFAT activation",[11],0.258 nM
same,"EC50, Jurkat-NFAT activation",[12],191 nM
same,"EC50, Jurkat-NFAT activation",[13],1.01 nM
same,"EC50, Jurkat-NFAT activation",[14],141 nM
same,"EC50, Jurkat-NFAT activation",[15],27.9 nM
same,"EC50, Jurkat-NFAT activation",[16],0.426 nM
same,"% of MAGE-A4 signal, Jurkat-NFAT",[17],0.85%
same,"% of MAGE-A4 signal, Jurkat-NFAT",[18],0.98%
same,"% of MAGE-A4 signal, Jurkat-NFAT",[19],0.59%
same,"% of MAGE-A4 signal, Jurkat-NFAT; grey (>2%)",[20],67.5%
same,"% of MAGE-A4 signal, Jurkat-NFAT",[21],0.91%
same,"% of MAGE-A4 signal, Jurkat-NFAT",[22],1.58%
same,"% of MAGE-A4 signal, Jurkat-NFAT",[23],1.8%
same,"% of MAGE-A4 signal, Jurkat-NFAT; grey (>2%)",[24],10.8%
same,"% of MAGE-A4 signal, Jurkat-NFAT; grey (>2%)",[25],53.1%
same,"% of MAGE-A4 signal, Jurkat-NFAT; grey (>2%)",[26],112%
same,"% of MAGE-A4 signal, Jurkat-NFAT; grey (>2%)",[27],10.6%
same,"% of MAGE-A4 signal, Jurkat-NFAT",[28],1.05%
same,"% of MAGE-A4 signal, Jurkat-NFAT",[29],1.46%
same,"% of MAGE-A4 signal, Jurkat-NFAT",[30],0.63%
same,"% of MAGE-A4 signal, Jurkat-NFAT",[31],1.37%
same,"% of MAGE-A4 signal, Jurkat-NFAT",[32],1.1%
same,"% of MAGE-A4 signal, Jurkat-NFAT; grey (>2%)",[33],57.9%
same,"% of MAGE-A4 signal, Jurkat-NFAT",[34],0.94%
same,"% of MAGE-A4 signal, Jurkat-NFAT",[35],1.37%
same,"% of MAGE-A4 signal, Jurkat-NFAT",[36],1.59%
same,"% of MAGE-A4 signal, Jurkat-NFAT",[37],1.14%
same,"% of MAGE-A4 signal, Jurkat-NFAT",[38],1.07%
same,"% of MAGE-A4 signal, Jurkat-NFAT; grey (>2%)",[39],67.9%
same,"% of MAGE-A4 signal, Jurkat-NFAT",[40],1.22%
same,"% of MAGE-A4 signal, Jurkat-NFAT",[41],1.11%
same,"% of MAGE-A4 signal, Jurkat-NFAT",[42],1.04%
same,"EC50 [pM] 24 h, T-cell mediated lysis of MAGE-A4 peptide pulsed T2 cells",[43],72.8 pM

# From patent US20260098095A1 (Hoffmann-La Roche, published 2026)
